Ends that are not written are not given here.
Experiments:
[1] = target: T1, human ACE2 (human, UniProt Q9BYF1); assay: SPR, 37C
[2] = target: T1, human ACE2; assay: SPR, 37C; remark: listed apart in the source
[3] = target: T1, human ACE2; assay: SPR; given as Ka
[4] = target: T1, human ACE2; assay: SPR

T1 sequence (Q9BYF1 18-740): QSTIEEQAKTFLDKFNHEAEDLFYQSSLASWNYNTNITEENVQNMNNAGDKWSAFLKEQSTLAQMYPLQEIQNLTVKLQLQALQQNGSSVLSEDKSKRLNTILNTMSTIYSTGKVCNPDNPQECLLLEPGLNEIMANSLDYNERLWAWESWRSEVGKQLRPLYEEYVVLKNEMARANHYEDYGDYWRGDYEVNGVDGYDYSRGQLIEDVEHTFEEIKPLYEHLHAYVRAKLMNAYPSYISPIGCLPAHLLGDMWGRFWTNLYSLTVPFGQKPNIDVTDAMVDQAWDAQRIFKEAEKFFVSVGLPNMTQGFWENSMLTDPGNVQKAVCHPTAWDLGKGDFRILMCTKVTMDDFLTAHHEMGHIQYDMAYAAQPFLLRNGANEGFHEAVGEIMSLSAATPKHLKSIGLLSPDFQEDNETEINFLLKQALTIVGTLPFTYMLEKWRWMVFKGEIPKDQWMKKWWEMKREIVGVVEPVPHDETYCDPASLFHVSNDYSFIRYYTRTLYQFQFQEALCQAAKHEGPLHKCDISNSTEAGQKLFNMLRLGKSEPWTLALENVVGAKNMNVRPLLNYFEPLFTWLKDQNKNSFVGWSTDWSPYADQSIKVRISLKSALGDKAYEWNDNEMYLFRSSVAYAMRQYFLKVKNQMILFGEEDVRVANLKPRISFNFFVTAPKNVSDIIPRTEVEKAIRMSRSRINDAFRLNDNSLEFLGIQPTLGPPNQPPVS

FPIPLPYYWLYRALIKRIQALIPKGGRLLPQLVYRLVLRYS (also: biotinylated (site not given here)) [B-YL (biotinylated)]
Kd [1]: 4.37 µM | Kd [2]: 4.37 µM

FPIPLPYCWLCRALIKRIQAMIPKGGRMLPQLVCRLVLRCS [Super Mini-B (SMB)]
Kd [3]: 0.0099 µM | Kd [4]: 0.00987 µM

— patent US20260345742 (published 2026)
